{
  "source": "patent US20180031580A1",
  "about": "“USE OF IGF-1 AS PROGNOSTIC FACTOR IN CALCIFICATION OF AORTIC VALVES” (THE ASAN FOUNDATION, priority 2015, published 2018)",
  "molecules": {"B1": {"name": "DPP-4: antigenic enzyme, membrane-bound glycoprotein, also referred to as CD26; cleaves two N-terminal peptides including proline (protein)", "chain": "NKGTDDATADSRKTYTLTDYLKNTYRLKLYSLRWISDHEYLYKQENNILVFNAEYGNSSVFLENSTFDEFGHSINDYSISPDGQFILLEYNYVKQWRHSYTASYDIYDLNKRQLITEERIPNNTQWVTWSPVGHKLAYVWNNDIYVKIEPNLPSYRITWTGKEDIIYNGITDWVYEEEVFSAYSALWWSPNGTFLAYAQFNDTEVPLIEYSFYSDESLQYPKTVRVPYPKAGAVNPTVKFFVVNTDSLSSVTNATSIQITAPASMLIGDHYLCDVTWATQERISLQWLRRIQNYSVMDICDYDESSGRWNCLVARQHIEMSTTGWVGRFRPSEPHFTLDGNSFYKIISNEEGYRHICYFQIDKKDCTFITKGTWEVIGIEALTSDYLYYISNEYKGMPGGRNLYKIQLSDYTKVTCLSCELNPERCQYYSVSFSKEAKYYQLRCSGPGLPLYTLHSSVNDKGLRVLEDNSALDKMLQNVQMPSKKLDFIILNETKFWYQMILPPHFDKSKKYPLLLDVYAGPCSQKADTVFRLNWATYLASTENIIVASFDGRGSGYQGDKIMHAINRRLGTFEVEDQIEAARQFSKMGFVDNKRIAIWGWSYGGYVTSMVLGSGSGVFKCGIAVAPVSRWEYYDSVYTERYMGLPTPEDNLDHYRNSTVMSRAENFKQVEYLLIHGTADDNVHFQQSAQISKALVDVGVDFQAMWYTDEDHGIASSTAHQHIYTHMSHFIKQCFSLP"}},
  "key": {"[1]": {"tested_on": "aortic valve vascular smooth muscle tissue", "experiment": "ALP staining of aortic valve vascular smooth muscle tissue, osteocytogenesis level", "type": "in vivo, mice", "settings": "wild-type or eNOS-deficient mice treated with DPP-4 and IGF-1 at the same time; FIG. 2a", "protocol": "Wild-type mice or eNOS-deficient mice which are animal models with the aortic valve calcification were treated with insulin-like growth factor type 1 (IGF-1) alone or treated with dipeptidyl-peptidase 4 (DPP-4) and IGF-1 at the same time. Then, ALP staining was performed on the aortic valve vascular smooth muscle tissue, thereby comparing the […] level of tissue (FIG. 2a). Here, the aortic valve vascular smooth muscle tissue of the wild-type mice treated with nothing or the eNOS-deficient mice was used as a control group.\nFIG. 2a are an image and a graph showing verification of the effect of DPP-4 on an action of IGF-1 inhibiting osteocytogenesis in the aortic valve vascular smooth muscle tissue of the wild-type mice or the eNOS-deficient mice."}, "ERK or Akt": {"tested_on": "ERK or Akt", "experiment": "Western blot of phosphorylation of intracellular signaling proteins ERK or Akt in aortic valve vascular smooth muscle tissue", "type": "in vivo", "settings": "eNOS-deficient mice treated with IGF-1 and DPP-4, 0, 5, 15 or 30 minutes; FIG. 2b", "protocol": "Further, in order to confirm whether the activation level of the protein involved in intracellular signaling was changed by osteocytogenesis according to DPP-4, the eNOS-deficient mice were treated with IGF-1 alone for 0, 5, 15 or 30 minutes, or treated with DPP-4 and IGF-1 at the same time, and then, the aortic valve vascular smooth muscle tissue was extracted from these mice. Then, a phosphorylation level of ERK or Akt which is a protein involved in intracellular signaling expressed in the extracted tissues was compared by western blot analysis (FIG. 2b). Here, β-actin was used as an internal control group.\nFIG. 2b is a Western blot analysis image showing a change in the phosphorylation level of ERK or Akt which is the protein involved in intracellular signaling according to whether the DPP-4 is treated in the eNOS-deficient mice treated with IGF-1."}},
  "data": [
    {"molecule": "B1", "values": [
      {"measurement": "osteocytogenesis of aortic valve vascular smooth muscle tissue (ALP staining)", "setting": "[1]", "result": "intensified"},
      {"measurement": "phosphorylation level of ERK or Akt", "setting": "ERK or Akt", "result": "reduced"}
    ]}
  ]
}
